In this test the target is S蛋白, SARS-CoV-2原型毒株 (SARS-CoV-2 (prototype)) (UniProt P0DTC2). The experiment in a line: cell-based or functional assay.

In turn, LY-CoV1404 (antibody) yielded a 假病毒中和活性 IC50 of 1.19 ng/mL.

For the origin of these results see patent CN117603358A.
